Results as given in patent US20180162911A1, “POLYPEPTIDES FOR THE DIAGNOSIS AND THE TREATMENT OF C3 NEF ASSOCIATED C3 GLOMERULOPATHY” (INSERM (INSTITUT NATIONAL DE LA SANTÉ ET DE LA RECHERCHE …, priority 2015, published 2018).
Where no end group is shown, it is not given here.

Assays:
C3NeF (patient IgG) [1] = experiment: Peptide inhibition assay with patients' IgG: reduction of C3NeF stabilization of the C3bBb convertase; assay type: biochemical, human; conditions: for decrease of % stabilization of P1 IgG: 100 μg IgG from P1 (stabilizes only C3bBb) taken as 100%, peptides pre-incubated overnight, n=3 experiments
Method: (§1) The ability of patient' IgG to stabilize a pre-formed membrane bound C3bBb was measured with EAC3bBb generated by the incubation of EC3b with appropriate concentration of FB and FD. Briefly, IgG was partially purified from plasma by chromatography on DEAE-cellulose and subsequently quantified by nephelometry. DEAE eluate contains IgG, and also low levels of contaminants such as Properdin and Factor H. Sheep erythrocytes EAC34b were incubated in presence of FB (Complement Technology) and FD (Sigma) to form the alternative convertase C3bBb. The convertase was allowed to decay in EDTA-containing buffer in presence of 400 μg of patient' IgG. Lysis was developed by the addition of rat serum. C3NeF stabilization was measured as the percentage of the residual convertase compared to the reference control without decay. The cut-off for positive C3NeF was determined as the mean+2 sd of the C3NeF stabilization of IgG from 30 healthy individuals.
The test was performed as described earlier, but 80 μg of peptides was utilized and the incubation of IgG and peptides was made at 4° C. overnight. IgG amount was determined depending on their stabilization capacity, in order to obtain 50% of residual convertase after the decay.
Membrane-bound convertase was formed as in the C3bBb assay. During the convertase decay step, cells were incubated with a fixed dose of Peptides (80 μg) and patient' IgG (amount determined by the concentration of IgG leading to 50% of residual convertase). The concentration of IgG applied in the test was chosen depending on their C3NeF activity.

Properdin [2] = molecular target: T1, Properdin (Homo sapiens, UniProt P27918); experiment: Peptide inhibition assay: inhibition of the stabilization of the C3 convertase mediated by Properdin (haemolytic, membrane-bound C3bBb); assay type: biochemical; conditions: for % inhibition of the Properdin stabilization capacity: 50 ng Properdin pre-incubated with 10 μg peptide 2 h at room temperature, n=2 experiments; for dose dependence of inhibition of Properdin stabilization: different doses of peptides
T1 construct: purchased Calbiochem
Method: as §1
Different mixes of 50 ng of Properdin and 10 μg of peptides were incubated at room temperature for 2 hours with gentle shaking in EDTA-containing buffer. As a control, Properdin was incubated with the peptide's dilution buffer. Membrane-bound convertase was formed as in the C3bBb assay. During the convertase decay step, cells were incubated with the mix of FP and peptides. FP amount was chosen in order to obtain 50% of residual convertase after the decay. Residual convertase was measured and data were expressed as percentage of inhibition (percentage of residual convertase compared to the control without peptide).

Properdin [3] = molecular target: T1, Properdin; experiment: ELISA, biotinylated peptides coated, binding of Properdin
Method: To investigate whether Properdin binds the peptides biotinylated peptides was coated onto ELISA plates and increased among of Properdin were incubated before adding anti human Properdin.

C3NeF (patient IgG) [4] = experiment: Peptide inhibition assay with patients' IgG: reduction of C3NeF stabilization of the C3bBb convertase; assay type: biochemical, human; conditions: P1 IgG
[5] = molecular target: T2, membrane bound C3bBb convertase (Homo sapiens, UniProt P00751+P01024); experiment: C3b erythrocyte based C3bBb convertase stabilization / competition assay; assay type: biochemical
T2 construct: EAC3bBb generated by the incubation of EC3b with appropriate concentration of FB and FD; incubated in presence of FB (Complement Technology) and FD (Sigma) to form the alternative convertase C3bBb; purchased Complement Technology (FB); Sigma (FD); host or cells: sheep erythrocytes coated with C3b
Method: as §1
Membrane-bound convertase was formed as in the C3bBb assay. During the convertase decay step, cells were incubated with FP alone at a fixed dose (800 ng); 4 different doses of IgG alone and a mix of both IgG and FP at the same concentration. […]
[…] Residual convertase was measured and data were expressed as percentage of inhibition (percentage of residual convertase compared to the control without peptide).

[6] = molecular target: C3bBbP Properdin-stabilized alternative pathway C3 convertase (UniProt P01024); experiment: SPR (ProteOn XPR36), C3b on GLC chip, convertase formed with FB, FD and FP, control IgG injected
[7] = molecular target: C3bBb alternative pathway C3 convertase (UniProt P01024); experiment: SPR (ProteOn XPR36), C3b on GLC chip, convertase formed with FB and FD, control IgG injected
[8] = molecular target: Properdin like C3NeF (3 patients' Ig positive for the C3bBb and negative for the C3bBbP test, Example 2); experiment: cell-based or functional assay
[9] = molecular target: Properdin enhancer C3NeF (4 patients' Ig positive in both tests, Example 2); experiment: cell-based or functional assay
Properdin [10] = molecular target: Properdin (human, UniProt P27918 28-469); experiment: cell-based or functional assay
[11] = molecular target: 3 C3NeF samples positive for the C3bBb and negative for the C3bBbP test (Example 1); experiment: cell-based or functional assay
[12] = molecular target: 3 C3NeF samples positive in both the C3bBb and the C3bBbP tests (Example 1); experiment: cell-based or functional assay
[13] = in presence of Properdin_enhancer C3NeF
[14] = in presence of Properdin_like C3NeF

T1 sequence (P27918 28-469): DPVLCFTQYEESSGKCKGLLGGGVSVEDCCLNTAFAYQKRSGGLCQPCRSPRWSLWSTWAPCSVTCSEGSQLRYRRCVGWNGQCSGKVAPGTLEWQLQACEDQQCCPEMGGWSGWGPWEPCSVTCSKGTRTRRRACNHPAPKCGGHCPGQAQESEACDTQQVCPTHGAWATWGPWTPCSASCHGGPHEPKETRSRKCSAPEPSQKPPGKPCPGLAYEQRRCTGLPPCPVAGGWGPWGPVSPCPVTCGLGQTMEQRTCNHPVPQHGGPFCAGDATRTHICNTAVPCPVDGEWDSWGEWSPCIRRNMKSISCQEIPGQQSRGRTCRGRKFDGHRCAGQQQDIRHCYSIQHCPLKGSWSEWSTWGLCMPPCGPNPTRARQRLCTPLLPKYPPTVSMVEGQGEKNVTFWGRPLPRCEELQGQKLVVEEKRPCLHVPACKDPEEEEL
T2 sequence (P01024 23-667 limits assumed): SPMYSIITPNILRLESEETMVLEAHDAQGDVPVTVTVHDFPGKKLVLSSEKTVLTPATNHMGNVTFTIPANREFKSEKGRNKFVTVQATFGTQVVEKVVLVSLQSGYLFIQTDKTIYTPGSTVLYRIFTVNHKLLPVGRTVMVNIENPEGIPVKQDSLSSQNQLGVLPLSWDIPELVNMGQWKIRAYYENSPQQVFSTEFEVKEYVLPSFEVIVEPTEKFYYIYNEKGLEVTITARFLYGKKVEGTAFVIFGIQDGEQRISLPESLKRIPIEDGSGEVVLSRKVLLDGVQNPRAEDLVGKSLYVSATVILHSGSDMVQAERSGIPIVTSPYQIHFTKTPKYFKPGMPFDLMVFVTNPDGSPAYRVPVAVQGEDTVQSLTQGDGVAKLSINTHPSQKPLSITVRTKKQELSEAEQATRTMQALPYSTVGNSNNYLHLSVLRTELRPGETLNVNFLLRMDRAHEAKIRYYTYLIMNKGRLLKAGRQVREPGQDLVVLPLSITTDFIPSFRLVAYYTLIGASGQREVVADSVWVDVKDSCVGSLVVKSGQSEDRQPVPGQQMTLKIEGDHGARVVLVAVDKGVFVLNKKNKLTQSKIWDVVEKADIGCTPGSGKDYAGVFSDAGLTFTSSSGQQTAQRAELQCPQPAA
T2 sequence (P01024 749-1663 limits assumed): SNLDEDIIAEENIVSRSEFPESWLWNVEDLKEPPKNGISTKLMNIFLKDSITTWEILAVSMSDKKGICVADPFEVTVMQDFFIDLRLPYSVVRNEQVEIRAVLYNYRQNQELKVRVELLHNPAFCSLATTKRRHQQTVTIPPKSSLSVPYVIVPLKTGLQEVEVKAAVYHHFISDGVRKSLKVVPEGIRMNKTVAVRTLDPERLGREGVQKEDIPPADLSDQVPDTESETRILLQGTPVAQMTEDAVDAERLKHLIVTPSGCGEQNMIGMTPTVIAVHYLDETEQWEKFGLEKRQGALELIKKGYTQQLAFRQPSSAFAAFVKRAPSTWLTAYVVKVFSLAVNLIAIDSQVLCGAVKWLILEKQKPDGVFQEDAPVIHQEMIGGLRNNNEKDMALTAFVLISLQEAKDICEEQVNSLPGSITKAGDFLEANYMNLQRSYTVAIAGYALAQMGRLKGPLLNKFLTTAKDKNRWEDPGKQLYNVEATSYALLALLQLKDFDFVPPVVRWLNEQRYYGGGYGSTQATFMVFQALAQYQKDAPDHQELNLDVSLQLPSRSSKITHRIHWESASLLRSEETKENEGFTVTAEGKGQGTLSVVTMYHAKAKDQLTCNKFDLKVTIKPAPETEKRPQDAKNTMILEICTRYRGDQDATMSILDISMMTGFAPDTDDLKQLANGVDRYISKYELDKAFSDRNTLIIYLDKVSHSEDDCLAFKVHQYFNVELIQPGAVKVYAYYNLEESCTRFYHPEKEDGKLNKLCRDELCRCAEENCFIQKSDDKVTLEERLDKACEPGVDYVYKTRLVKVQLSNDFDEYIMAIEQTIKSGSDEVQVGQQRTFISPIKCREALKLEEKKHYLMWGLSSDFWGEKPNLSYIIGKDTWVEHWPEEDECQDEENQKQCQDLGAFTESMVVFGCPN
T2 sequence (P00751 260-764 limits assumed): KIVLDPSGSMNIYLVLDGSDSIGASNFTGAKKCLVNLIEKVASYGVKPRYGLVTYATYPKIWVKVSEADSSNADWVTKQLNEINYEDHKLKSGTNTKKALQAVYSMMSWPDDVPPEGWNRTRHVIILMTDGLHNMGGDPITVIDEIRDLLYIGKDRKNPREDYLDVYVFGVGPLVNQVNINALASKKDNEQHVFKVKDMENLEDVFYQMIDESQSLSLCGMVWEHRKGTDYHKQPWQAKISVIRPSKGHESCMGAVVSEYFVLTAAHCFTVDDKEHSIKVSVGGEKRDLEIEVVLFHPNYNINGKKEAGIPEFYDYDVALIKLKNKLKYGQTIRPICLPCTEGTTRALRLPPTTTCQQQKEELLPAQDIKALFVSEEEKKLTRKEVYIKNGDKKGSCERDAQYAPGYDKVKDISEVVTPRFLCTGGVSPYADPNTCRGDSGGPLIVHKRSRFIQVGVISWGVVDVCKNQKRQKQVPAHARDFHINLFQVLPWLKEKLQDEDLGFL
Sequence of Properdin (human, UniProt P27918 28-469) (P27918 28-469 limits assumed): as the sequence (P27918 28-469) above
Sequence of C3bBbP Properdin-stabilized alternative pathway C3 convertase (P01024 23-1663 limits assumed, chain 1 of 3): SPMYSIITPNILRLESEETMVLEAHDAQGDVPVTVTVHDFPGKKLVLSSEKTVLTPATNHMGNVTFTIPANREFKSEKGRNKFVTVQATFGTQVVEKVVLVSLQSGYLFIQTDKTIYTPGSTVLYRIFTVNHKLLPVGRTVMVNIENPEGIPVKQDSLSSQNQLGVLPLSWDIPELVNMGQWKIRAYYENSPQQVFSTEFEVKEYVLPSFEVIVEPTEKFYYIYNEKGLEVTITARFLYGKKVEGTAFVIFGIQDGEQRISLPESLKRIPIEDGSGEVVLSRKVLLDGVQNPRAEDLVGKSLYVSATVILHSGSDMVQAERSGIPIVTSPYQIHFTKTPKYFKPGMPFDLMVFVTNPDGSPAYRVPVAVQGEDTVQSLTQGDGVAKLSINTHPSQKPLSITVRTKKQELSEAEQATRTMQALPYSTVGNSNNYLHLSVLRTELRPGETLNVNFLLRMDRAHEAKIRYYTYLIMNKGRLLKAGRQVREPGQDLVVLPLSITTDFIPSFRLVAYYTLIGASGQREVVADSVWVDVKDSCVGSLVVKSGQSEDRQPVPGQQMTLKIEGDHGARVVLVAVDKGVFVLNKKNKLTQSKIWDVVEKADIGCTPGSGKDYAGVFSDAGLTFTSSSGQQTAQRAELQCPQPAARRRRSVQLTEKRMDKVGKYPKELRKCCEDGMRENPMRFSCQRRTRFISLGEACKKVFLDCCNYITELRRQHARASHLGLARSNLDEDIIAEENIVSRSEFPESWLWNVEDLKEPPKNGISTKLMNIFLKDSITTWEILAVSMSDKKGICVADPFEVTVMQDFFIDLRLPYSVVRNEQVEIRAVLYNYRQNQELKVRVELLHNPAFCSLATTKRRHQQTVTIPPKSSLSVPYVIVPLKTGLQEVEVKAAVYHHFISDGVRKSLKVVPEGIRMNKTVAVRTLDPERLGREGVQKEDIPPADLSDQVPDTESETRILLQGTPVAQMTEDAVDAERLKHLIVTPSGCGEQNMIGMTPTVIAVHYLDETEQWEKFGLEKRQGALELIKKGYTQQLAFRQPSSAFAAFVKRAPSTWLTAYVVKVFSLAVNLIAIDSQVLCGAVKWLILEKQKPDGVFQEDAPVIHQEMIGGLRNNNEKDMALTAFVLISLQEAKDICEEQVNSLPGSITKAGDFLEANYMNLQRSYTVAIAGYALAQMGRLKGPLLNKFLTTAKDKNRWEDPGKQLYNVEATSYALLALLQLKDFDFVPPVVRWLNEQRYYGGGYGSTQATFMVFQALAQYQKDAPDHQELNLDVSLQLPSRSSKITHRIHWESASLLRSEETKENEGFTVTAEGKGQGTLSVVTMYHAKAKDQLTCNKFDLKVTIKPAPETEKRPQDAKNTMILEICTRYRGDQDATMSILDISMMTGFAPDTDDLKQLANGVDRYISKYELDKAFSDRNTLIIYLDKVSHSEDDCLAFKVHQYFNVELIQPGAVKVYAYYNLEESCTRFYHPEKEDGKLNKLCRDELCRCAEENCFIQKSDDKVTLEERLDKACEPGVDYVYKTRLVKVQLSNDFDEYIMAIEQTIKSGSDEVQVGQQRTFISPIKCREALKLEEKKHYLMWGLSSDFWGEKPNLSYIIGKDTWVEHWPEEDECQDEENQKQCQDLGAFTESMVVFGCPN
Sequence of C3bBbP Properdin-stabilized alternative pathway C3 convertase (P00751 260-764 limits assumed, chain 2 of 3, further chain): as the sequence (P00751 260-764 limits assumed) above
Sequence of C3bBbP Properdin-stabilized alternative pathway C3 convertase (P27918 28-469 limits assumed, chain 3 of 3, further chain): as the sequence (P27918 28-469) above
Sequence of C3bBb alternative pathway C3 convertase (P01024 23-667 limits assumed, form in doubt, chain 1 of 3): as the sequence (P01024 23-667 limits assumed) above
Sequence of C3bBb alternative pathway C3 convertase (P01024 749-1663 limits assumed, form in doubt, chain 2 of 3): as the sequence (P01024 749-1663 limits assumed) above
Sequence of C3bBb alternative pathway C3 convertase (P00751 260-764 limits assumed, form in doubt, chain 3 of 3, further chain): as the sequence (P00751 260-764 limits assumed) above

G-EDEEPWEQITVV YPKIWV (GEDEEPWEQITVVYPKIWV; Synthetic pep2) [peptide 2, 3 parts of C3b and one part of the vWFA domain of Bb]
decrease of % stabilization of P1 IgG (C3NeF (patient IgG) [1]): remained in the same range
% inhibition of the Properdin stabilization capacity (Properdin [2]): no effect

G-EERLDKACENNDSIGASNFTG (GEERLDKACENNDSIGASNFTG; Synthetic pep3) [peptide 3, residues of C3b and Bb, left side of the C3 convertase]
decrease of % stabilization of P1 IgG (C3NeF (patient IgG) [1]): remained in the same range
% inhibition of the Properdin stabilization capacity (Properdin [2]): no effect

G-QDEENQKQCQDLGAFTESMVVFNIENLQKTVWD (GQDEENQKQCQDLGAFTESMVVFNIENLQKTVWD; N-terminal G; Synthetic pep1) [peptide 1, 22 residues of C3b (1616-1637) and 11 residues of Bb (308-318)]
capacity of peptides to bind Properdin (Properdin [3]): binds
decrease of % stabilization of P1 IgG (C3NeF (patient IgG) [1]): 40%
C3NeF stabilization diminished (C3NeF (patient IgG) [1]; 3 C3NeF samples positive for the C3bBb and negative for the C3bBbP test): 20-40%
C3NeF stabilization diminished (C3NeF (patient IgG) [1]; 3 C3NeF samples positive in both tests): 20-70%
percentage of inhibition vs control (C3NeF (patient IgG) [1]; [13]): No significant difference
percentage of inhibition vs control (C3NeF (patient IgG) [1]; [14]): significantly higher
dose dependence of inhibition of Properdin stabilization (Properdin [2]): dose-dependent
dose dependence of inhibition of IgG stabilization (C3NeF (patient IgG) [4]): dose dependent

GAFTESMVVFLKHDEYNIE (Synthetic short1)
stabilization of the Convertase diminished (C3NeF (patient IgG) [1]; Example 2, Properdin enhancer C3NeF (4 patients' Ig positive in both tests), 80 μg peptide): 40-80%
percentage of inhibition vs control (C3NeF (patient IgG) [1]; [13]): significantly higher
percentage of inhibition vs control (C3NeF (patient IgG) [1]; [14]): No significant difference

GENQKQCQDLGAFTESMVVFLKHDE (Synthetic pep1C3bExt)
percentage of inhibition vs control (C3NeF (patient IgG) [1]; [13]): No significant difference
percentage of inhibition vs control (C3NeF (patient IgG) [1]; [14]): significantly higher
% inhibition of the Properdin stabilization capacity (Properdin [2]): no effect

Properdin: complement protein Properdin (Calbiochem), stabilizes the C3 convertase
residual C3bBb lytic site ([5]; 800 ng of Properdin): 60%
% of stabilization of C3 convertase ([5]; Properdin incubated with peptides' excipient): 40%

SMVVFLKHDEYNIENLQKTVWD (Synthetic pep1BbExt) [22 aminoacids comprising 5 aa on C3b and 17 from FB]
capacity of peptides to bind Properdin (Properdin [3]): binds
percentage of inhibition vs control (C3NeF (patient IgG) [1]; [13]): No significant difference
percentage of inhibition vs control (C3NeF (patient IgG) [1]; [14]): significantly higher
dose dependence of inhibition of Properdin stabilization (Properdin [2]): dose-dependent

control IgG from healthy donors (antibody)
IgG binding, residual (RU) [6]: 13 RU
IgG binding, residual (RU) [7]: 1 RU

GENQKQCQDLGAFTESMVVFLKHDE [Pep1C3bExt]
stabilization diminished [8]: 20 to 40%

GAFTESMVVFLKHDEYNIE [short1]
stabilization diminished [9]: 40 to 80%

SMVVFLKHDEYNIENLQKTVWD (also: biotinylated when coated in ELISA) [Pep1BbExt]
inhibition of the Properdin stabilization capacity (Properdin [10]): 80%
stabilization diminished [8]: 20 to 40%

GQDEENQKQCQDLGAFTESMVVFNIENLQKTVWD (also: biotinylated when coated in ELISA) [Peptide 1]
inhibition of the Properdin stabilization capacity (Properdin [10]): 80%
C3NeF stabilization diminished [11]: 20 to 40%
stabilization diminished [8]: 20 to 40%
C3NeF stabilization diminished [12]: 20 to 70%
